# Data reported in the supplement of paper PMC9732359.
# ± gives the uncertainty stated by the source.
# Assay: protein stability index of a GFP-peptide fusion (yeast GPS) (PSI 1-4); higher = more stable; sorted into four equal gates, so the index is relative within each strain
# Conditions: doa10∆
# Outline: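 Sequencing reads from sorted gates were used to score each peptide. The library consisted of tiled 17-residue yeast protein peptides fused downstream of GFP on a Cherry-expressing plasmid, pooled and carried in yeast. Mid-log cultures in leucine-free medium were split into four equal gates by GFP/Cherry ratio, and each gate's plasmids were PCR-amplified and Illumina-sequenced. The protein stability index adds up, over all gates, the read frequency multiplied by the gate number.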
row,Sequence,protein stability index
1,SVINNYLREDQMIDTSI [NUT1],2.99 ± 0.074
2,SVIQLCGGINDSIPYPQ [ECM29],3.16 ± 0.17
3,SVIVDSKVTVPPSKHST [ESC2],2.75 ± 0.11
4,SVKPHVVEPEHMADAKI [SIR4],2.68 ± 0.14
5,SVLLQQLLTPGSKISSN [YGL172W/NUP49],2.46 ± 0.093
6,SVLNPFLLRRVKADVEK [ISW2],1.15 ± 0.14
7,SVMDPITSKRKAELLLK [DIS3],2.83 ± 0.088
8,SVPLMINAKNIAFASNY [RRP43],1.57 ± 0.06
9,SVPLVIGQFLEPIDQNT [RPT3],1.88 ± 0.11
10,SVQINVAKVDEEGRAIP [RPS21A],3.28 ± 0.065
11,SVSPQMNAILTDVKLTL [SMD1],2.85 ± 0.047
12,SVTIISAGNDKMVKAWN [ASC1],2.35 ± 0.22
13,SVVSQIEKGSTFGINLI [FAS1],3.09 ± 0.2
14,SWRNITNLSGGEKTLSS [SMC4],3.37 ± 0.13
15,SYAVSPYAQKPLQGIFH [QCR8],2.51 ± 0.082
16,SYDVENVNSRNQLVEPN [SRB5],3.21 ± 0.12
17,SYPILNESSTFLKLVLS [SIN4],1.97 ± 0.035
18,SYPVNGSQKTFEIDDEH [RPS6A],2.98 ± 0.13
19,SYRNAFTNVLTKYSDVL [YJL039C/NUP192],2.12 ± 0.052
20,SYVVPRLYLKDQTNHIE [ECM29],2.62 ± 0.076
21,TAAYARTIGIAVDHRRQ [RPL13A],1.58 ± 0.077
22,TAEFGKILAGLHDTQIE [RPN10],3.23 ± 0.11
23,TANALPLPAVFSAPIRP [RPL4A],1.79 ± 0.042
24,TAQKYPIYTGDGWVKLT [YMR153W/NUP53],1.63 ± 0.062
25,TARINNRRLFKKCIDFF [RRI2],2 ± 0.082

row,Sequence,protein stability index
1,TARVMGGLKNGVLYQGN [DIS3],3.19 ± 0.069
2,TATASLGVIHKGNLLEG [RPN2],2.96 ± 0.16
3,TDIKQFLELTRRADVKT [RPL38],2.95 ± 0.17
4,TDKIGRSVPAPGKGILT [FAS2],2.95 ± 0.17
5,TDKKAFLGALKYLPHAI [PRP8],2.94 ± 0.12
6,TDKSNSPIGFTNSPQIS [SMC2],3.02 ± 0.05
7,TDQSTEEEKSVDASPND [CSL4],2.88 ± 0.2
8,TDSSALTYDRLEFATIR [PRE9],3.07 ± 0.081
9,TDSWESFFVSVRKAITV [FAS1],2.76 ± 0.27
10,TEEKCKNFIESESVGAF [YJL039C/NUP192],3.43 ± 0.15
11,TEFSKNDLEVGVATKDK [SCL1],2.95 ± 0.079
12,TEGRSRDGGLRLGEMER [RET1],1.35 ± 0.081
13,TEHLTELSDNEENFEAT [YCG1],2.87 ± 0.14
14,TEKLKISPESVFGTLGE [SMC3],1.99 ± 0.087
15,TEKMEEQLDLLSAILDP [MED11],3.14 ± 0.087
16,TELRQLFQENDDDDDDD [DSN1],2.03 ± 0.063
17,TENEKFISYHDKYLCML [NUT1],2.91 ± 0.056
18,TEQIKMRILSNDITNLQ [SRB8],2.33 ± 0.042
19,TETSNEDEDEDDETPSC [SNU114],2.68 ± 0.067
20,TEVIIRATRTQDVLGEN [RPS3],3.42 ± 0.26
21,TEVRAEDEAALAKLVST [RPL8A],2.9 ± 0.062
22,TEYFENKQSVSNLSPDL [DSN1],3.48 ± 0.13
23,TFENINSLFYLKWSACT [IRR1],1.26 ± 0.082
24,TFHHHGRQTVLIKDNSA [SRB2],1.92 ± 0.25
25,TFIYGYCDKNFRENMSK [PRE3],2.12 ± 0.079

row,Sequence,protein stability index
1,TFLVSNDDEVSQFCYVS [RPN14],2 ± 0.13
2,TFNSKPVRTIVPISTSQ [SIR4],2.32 ± 0.037
3,TFPVGRVHRLLRRGNYA [HTA1],2.38 ± 0.13
4,TFRIFHNHDTGCDENDS [YDL088C/ASM4],2.92 ± 0.1
5,TFTQLVSSSLYERRFGP [PUP3],2.79 ± 0.12
6,TGEKPIITGSTSTSSSN [MED8],2.79 ± 0.048
7,TGEWFSSYEEFLERFDF [ITC1],2.99 ± 0.098
8,TGGTRTKTPGPGGQAAL [RPS14A],3.24 ± 0.04
9,TGNNNNIATQQNMQQSL [GAL11],2.06 ± 0.048
10,TGWITQSTPVLLNHGER [RPN1],2.61 ± 0.061
11,THFLLNIYDQLRNKLIE [RRP6],2.62 ± 0.044
12,THIAESAKEIAKASGCD [MCD1],3.16 ± 0.14
13,THIPQTNLKNHPAYLFK [YLR018C/POM34],2.84 ± 0.059
14,THRNKDGTGVRVIVAGT [FAS1],2.16 ± 0.26
15,TIGAIFLNHAFDYMNRY [CDC53],2.04 ± 0.065
16,TINISLSFSWAILLIIN [NUT1],1.35 ± 0.06
17,TINLDRFMKGRRSKQLI [RPC82],2.09 ± 0.1
18,TIQSDLNLSLHKLDLAK [SMC2],2.81 ± 0.049
19,TIQYDPPETKLPYPTYW [SNF5],3.02 ± 0.049
20,TISEKEQDILDLIAEQV [SSN2],3.08 ± 0.14
21,TIVLSLNVKCTRNPDAP [RPC40],1.66 ± 0.091
22,TKDLLSKSPSEWQDIIH [CSE2],3.1 ± 0.082
23,TKFKVRGSSSLYTLVIN [RPL38],2.08 ± 0.074
24,TKFLAKNGVIPEESKGS [SWP82],3.19 ± 0.096
